Experimental data taken from the MegaScale stability set (Tsuboyama et al. 2023).

B1: EHEE_rd2_0191 (parent)
chain: TTEYTFTDDEEARRAIEELKKRGLTFRYEKHGTTWRVRVD

Variants of: B1
Assay: folding stability dG (cDNA display proteolysis); higher = more stable
Settings: PBS, room temperature

Folding stability dG [kcal/mol]: each site, then its substitutions
K21: Q 1.81; A 2.12; M 1.9; H 1.58; F 1.63; S 1.94; G 1.45
F6: L 0.168; T -0.433; M -0.111; I 0.614; Y 1.96; W 0.741; G -0.522
E11: P 0.754; M 2.02; G 1.46; F 1.37; V 1.85; S 2.43; A 2.16; H 1.77; K 1.73; W 1.5; Q 2.1; R 1.54; C 2.14; N 1.56; D 1.88; Y 1.29; I 1.78; T 2.31; L 1.84
T7: K 1.62; N 1.97; M 1.82; D 1.97; H 2.13; E 2.07; Y 2.47; C 2.34; I 1.68; W 1.89; R 1.59; V 1.71; A 1.63; F 2.22; P 0.677; S 1.75; L 1.83; Q 1.88; G 1.37
A15: E 0.719; C 3.17; W 2.9; Q 1.29; F 4.89; G 1.06; S 1.07; V 2.36; M 2.85; N 0.878; K 1.97; L 2.63; Y 2.87; H 1.73; T 1.94; R 1.08; I 2.02
A12: S -0.064; H 0.073; F 3.56; T 0.424; C 2.13; K -0.512; G 1.04; W 1.63; R -0.372; L 2.53; Q -0.999; I 0.942; V 1.47; Y 1.66; M 2.33
D8: G 1.33; R 1.39; Q 1.16; M 0.896; A 1.24; E 1.29; Y 0.721; N 2.41; L 1.08; W 0.65; F 0.882; H 1.32; K 1.37; T 2.29; S 2.44; V 1.36; I 1.2
G23: C 1.31; W 0.206; R 1.18; L 0.596; D 0.517; T -0.314; K 1.21; Y 0.547; N 1.4; F 0.765; S 0.756; Q 0.972; A 0.759; M 0.906; E 0.428; H 1.26
F26: T 0.447; P 1.41; H 0.04; V 2.73; M 0.795; A 0.99; Y 1.73; W 0.681; L 1.61; I 2.04
D9: T 1.3; A 2.15; H 1.73; L 1.91; M 1.83; P 2.3; G 1.81; R 1.92; I 2.08; S 1.81; Y 2.39; N 1.63; Q 1.8; W 3.27; K 1.77; F 2.33; E 2.41; V 2
K20: R 2.27; D 1.15; Y 1.99; E 1.86; F 2.02; V 2.07; A 1.81; G 1.41; M 2.15; I 2.42; S 1.81; H 1.71; W 1.75; N 1.54; T 2.12; Q 2; L 2.15; C 2.56
T5: S 1.49; W 2.68; Y 2.39; V 2.54
